The target in assay [1] is T1, mouse TNFR1 on L929 cells (mouse, UniProt P25118 30-454).
T1 sequence (looked up): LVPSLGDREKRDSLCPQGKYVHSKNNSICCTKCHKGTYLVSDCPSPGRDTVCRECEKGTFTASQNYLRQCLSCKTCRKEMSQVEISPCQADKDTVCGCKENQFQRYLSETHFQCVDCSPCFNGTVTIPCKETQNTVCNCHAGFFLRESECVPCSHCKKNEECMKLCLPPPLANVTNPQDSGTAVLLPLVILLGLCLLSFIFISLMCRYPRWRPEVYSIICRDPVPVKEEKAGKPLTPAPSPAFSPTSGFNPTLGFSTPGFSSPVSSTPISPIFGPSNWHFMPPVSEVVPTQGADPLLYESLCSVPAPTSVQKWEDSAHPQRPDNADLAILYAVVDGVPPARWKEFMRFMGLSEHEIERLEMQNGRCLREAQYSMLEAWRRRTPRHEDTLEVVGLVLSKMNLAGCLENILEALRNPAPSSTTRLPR
The assay is described as follows: cell-based or functional assay.

The target in a further assay is T2, mouse TNFR1 (mouse, UniProt P25118 30-212, limits assumed).
T2 construct: also called murine TNFR1; biotinylated murine TNFR1
T2 sequence: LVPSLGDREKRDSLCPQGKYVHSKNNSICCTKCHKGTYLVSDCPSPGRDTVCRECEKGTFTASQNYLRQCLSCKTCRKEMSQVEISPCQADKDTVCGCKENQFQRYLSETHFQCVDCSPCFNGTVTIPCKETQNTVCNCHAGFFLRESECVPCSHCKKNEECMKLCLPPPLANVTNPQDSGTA
The assay is described as follows: receptor binding assay.

In assay [2] the target is T1, mouse TNFR1 on L929 cells. Description: cell-based or functional assay. The source holds these as a separate data set.
In the next assay the target is T3, hen egg lysozyme (hen, UniProt P00698 19-147).
T3 construct: also called HEL
T3 sequence (P00698 19-147): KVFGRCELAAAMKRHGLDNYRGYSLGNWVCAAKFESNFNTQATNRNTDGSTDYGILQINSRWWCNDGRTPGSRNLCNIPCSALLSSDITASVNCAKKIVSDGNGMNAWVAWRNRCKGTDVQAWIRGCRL
The assay is described as follows: selection from a dAb library.

Assay [3] concerns the target T4, human TNFR1 (human p55 TNF receptor) (human, UniProt P19438 30-211, limits assumed).
T4 construct: also called TAR2; human TNF receptor 1
T4 sequence: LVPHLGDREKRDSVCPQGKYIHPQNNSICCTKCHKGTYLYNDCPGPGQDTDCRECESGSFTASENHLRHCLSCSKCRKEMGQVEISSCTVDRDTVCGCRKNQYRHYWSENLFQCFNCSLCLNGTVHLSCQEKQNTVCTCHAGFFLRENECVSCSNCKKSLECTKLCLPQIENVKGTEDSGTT
The assay is described as follows: SPR on biotinylated TNFR1, competition with chimeric TNFR1. The protocol: This example describes a method that was used to determine the domain specificity of dAbs that bind TNFR1. […] If the dAb is pre-incubated and equilibrated with a chimeric molecule that comprises the domain(s) of TNFR1 that the particular dAb binds, then flow of this mixture over the TNFR1 surface will produce a smaller SPR signal relative to the dAb alone.
Once the optimum anti-TNFR1 dAb concentration was determined, anti-TNFR1 dAb/chimeric TNFR1 mixes were set up. Mixes were set up such that the final concentration of anti-TNFR1 dAb was identical to the optimal concentration determined previously. Reactions were typically set up in 100 μl volumes containing 50 microliters of a 2× concentrate of anti-TNFR1 dAb, 40 microliters of Biacore buffer and 10 microliters of neat, purified chimeric protein. Typical concentrations for the final mix were about 10-100 μM of chimeric protein and about 10-100 nM anti-TNFR1 dAb. Mixtures were allowed to equilibrate for 30 minutes at room temperature.

Data on ten molecules can be found in patent US20130022605A1 (published 2013).

B1: TAR2m21-23 dimer (other)
VH: EVQLLESGGGLVQPGGSLRLSCAASGFTFNRYSMGWLRQAPGKGLEWVSRIDSYGRGTYYEDPVKGRFSISRDNSKNTLYLQMNSLRAEDTAVYYCAKISQFGSNAFDYWGQGTQVTVSSC
For the molecule B1, in assay [1], the “fold decrease in ND50 of the dimer against the monomer” value was ~10 fold.

B2: TAR2m-20 (other)
chain: EVQLLESGGGLVQPGGSLRLSCAASGFTFGSYSMSWVRQAPGKGLEWVSGIDNGGHSTYYADSVKGRFTISRDNSKNTLYLQMNSLRAEDTAVYYCAKRSSGLPFPFDYWGQGTLVTVSS
notes: anti-mouse TNFR1 dAb
As to B2, the concentration for half-maximal inhibition (IC50) (in general, the concentration needed to halve the response being measured) in the assay with mouse TNFR1 amounted to 150 nM.

B3: TAR2m-19 (other)
chain: EVQLLESGGGLVQPGGSLRLSCAASGFTFRKYDMHWVRQAPGKGLEWVSTISPSGRRTYYADSVKGRFTISRDNSKNTLYLQMNSLRAEDTAVYYCAENLDQVLSFDYWGQGTLVTVSS
notes: anti-mouse TNFR1 dAb
B3: the “L929 Cell Assay, Activity (IC50)” value in assay [2] turned out to be 10000 nM. The half-maximal inhibitory concentration (IC50) in the assay with mouse TNFR1 is 2000 nM.

B4: TAR2m-21-10 (other)
chain: EVQLLESGGGLVQPGGSLRLSCAASGFTFTRYSMGWLRQAPGKGLEWVSRIDSYGRGTYYADSVKGRFTISRDNSKNTLYLQMNSLRAEDTAVYYCAKISQFGSNAFDYWGQGTLVTVSS
Regarding B4, in assay [2], the “L929 Cell Assay, Activity (IC50)” value stood at 30 nM.

B5: TAR2m-21-06 (other)
chain: EVQLLESGGGLVQPGGSLRLSCAASGFTFTRYSMGWIRQAPGKGLEWVSRIDSYGRGTYYADSVKGRFTISRDNSKNTLYLQMNSLRAEDTAVYYCAKISQFGSNAFDYWGQGTLVTVSS
Turning to B5, in assay [2], the “L929 Cell Assay, Activity (IC50)” value turned out to be 100 nM.

B6: TAR2m-21-17 (other)
chain: EVQLLESGGGLVQPGGSLRLSCAASGFTFTRYSMGWVRQAPGKGLEWVSRIDSYGRGTYYADSVKGRFTISRDNSKNTLYLQMNSLRAEDTAVYYCAKISQFGSNAFDYWGQGTVVTVSS
As for B6, in assay [2], the “L929 Cell Assay, Activity (IC50)” value stood at 300 nM.

B7: HEL4 (other)
VH: EVQLLESGGGLVQPGGSLRLSCAASGFRISDEDMGWVRQAPGKGLEWVSSIYGPSGSTYYADSVKGRFTISRDNSKNTLYLQMNSLRAEDTAVYYCASALEPLSEPLGFWGQGTLVTVSS
notes: VH dAb
On to B7, for which the binding result with hen egg lysozyme is “binds”.

B8: TAR2h-15-8 (other)
chain: EVRLLESGGGLVQPGGSLRLSCVASGFTFGKSTMTWVRQAPGKGLEWVSHISDDGNSTYYADSVKGRFTISRDNSKNTLYLQMNSLRAEDTAVYYCAKVPILAPRNLFDYWGQGTLVTVSS
notes: anti-human TNFR1 dAb
As to B8, the binding result in assay [3] is “binds”.

B9: TAR2h-131-8 (other)
chain: EVQLLESGGGLIQPGGSLRLSCAASGFTFAHETMVWVRQAPGKGLEWVSHIDRVGQDTYYADSVKGRFTISRDNSKNTLYLQMNSLRAEDTAVYYCAKLPKRGPWFDYRGQGTLVTVSS
notes: anti-human TNFR1 dAb
With B9, the binding result in assay [3] is given as “binds”.

B10: TAR2h-35-4 (other)
chain: EVQLLESGGGLVQPGGSLRLSCAASGFTFDAYNMFWFRQAPGKGPEWVSAIGPSGRETYYADSVKGRFTITRDNSKNTLYLQMNSLRAEDTAVYYCAKRYPDFDYWGQGTLVTVSS
notes: anti-human TNFR1 dAb
Consider B10, for which the binding result in assay [3] is “binds”.
